The source of these data is US20110039779A1 (published 2011).

Values joined by “and” are separate entries in the source; they are usually repeats but may differ in a detail not shown here. Equal values may be shown once. Where no end group is shown, it is not given here. [ ]: non-standard residue; d: D form. The star is where a group is joined. Biotin = O=C1N[C@H]2[C@H](CS[C@H]2CCCCC(=O)*)N1; AEEA = NCCOCCOCC(=O)O

B1: F254 (peptide)
peptide: ESFYSCLESLVAGPAEKSRGQWEGCR[AEEA][AEEA]GYSWLRDVLMEKQAQLKREGSVGRQE
modifications: cysteine pairing not given here
notes: 111 conjugated by POX
B2: F194 (peptide)
peptide: XEESFYSCLESLVNGGAERSDGQWEGCREE
modifications: N-terminal Lig (lysine with a 2-aminohydroxyacetyl group on the epsilon amino group)
B3: F119 (peptide)
peptide: XGSLDESFYDWFERQLGKK
modifications: N-terminal Lig (lysine with a 2-aminohydroxyacetyl group on the epsilon amino group)
B4: F191 (peptide)
peptide: EEGVDEVRAWLWCQISGLGCESEEX
modifications: C-terminal Lig (lysine with a 2-aminohydroxyacetyl group on the epsilon amino group)

The target in one experiment is T1, IGF-1R on SW480 cells (UniProt P08069 31-1367, limits assumed). In words: cell-based or functional assay.
T1 sequence (P08069 31-1367 limits assumed): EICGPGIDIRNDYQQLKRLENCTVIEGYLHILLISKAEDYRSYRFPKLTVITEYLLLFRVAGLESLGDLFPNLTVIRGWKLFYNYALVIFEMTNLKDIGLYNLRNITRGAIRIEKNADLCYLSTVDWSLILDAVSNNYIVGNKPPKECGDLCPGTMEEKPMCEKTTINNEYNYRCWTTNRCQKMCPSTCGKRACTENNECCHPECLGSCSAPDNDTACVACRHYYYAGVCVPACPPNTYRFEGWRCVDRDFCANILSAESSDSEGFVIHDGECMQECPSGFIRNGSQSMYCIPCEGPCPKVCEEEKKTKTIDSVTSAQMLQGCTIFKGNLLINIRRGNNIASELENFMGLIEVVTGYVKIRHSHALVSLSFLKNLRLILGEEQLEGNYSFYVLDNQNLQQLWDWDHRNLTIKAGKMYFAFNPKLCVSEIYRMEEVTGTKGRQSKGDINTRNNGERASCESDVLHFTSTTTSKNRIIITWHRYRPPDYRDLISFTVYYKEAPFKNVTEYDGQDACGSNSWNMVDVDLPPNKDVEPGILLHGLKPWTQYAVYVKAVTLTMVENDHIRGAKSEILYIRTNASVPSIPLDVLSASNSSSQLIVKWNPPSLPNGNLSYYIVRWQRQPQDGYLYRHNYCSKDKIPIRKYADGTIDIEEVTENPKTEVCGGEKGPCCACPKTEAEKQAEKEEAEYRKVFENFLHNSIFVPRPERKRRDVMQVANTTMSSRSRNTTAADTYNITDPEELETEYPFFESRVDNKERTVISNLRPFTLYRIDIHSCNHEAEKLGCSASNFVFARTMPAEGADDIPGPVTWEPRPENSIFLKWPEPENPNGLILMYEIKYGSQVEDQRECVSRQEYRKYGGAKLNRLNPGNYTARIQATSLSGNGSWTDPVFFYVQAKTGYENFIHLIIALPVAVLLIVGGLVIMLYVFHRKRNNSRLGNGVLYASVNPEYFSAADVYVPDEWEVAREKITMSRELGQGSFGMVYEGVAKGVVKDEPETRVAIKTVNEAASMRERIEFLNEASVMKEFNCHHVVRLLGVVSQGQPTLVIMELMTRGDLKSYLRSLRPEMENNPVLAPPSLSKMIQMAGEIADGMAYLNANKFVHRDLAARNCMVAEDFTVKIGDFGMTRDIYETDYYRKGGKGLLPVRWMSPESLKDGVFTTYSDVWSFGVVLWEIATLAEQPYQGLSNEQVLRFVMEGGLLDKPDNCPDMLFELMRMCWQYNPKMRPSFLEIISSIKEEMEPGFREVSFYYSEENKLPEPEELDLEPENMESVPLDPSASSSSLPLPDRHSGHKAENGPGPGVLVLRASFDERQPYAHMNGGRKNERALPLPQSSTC
Turning to DFYGCLLDLSLGVPSLGWRRRCIT [F428], the “IC50, IGF-1 (10 nM)-induced proliferation of SW480 cells, exp. 13717-019” value stood at 1000 nM and the “IC50, IGF-1 (10 nM)-induced proliferation of SW480 cells, exp. 13717-027” value came out at 1000 nM. As for SFYSCLESLVSGPAEKSHRRWEACR [F321], the “IC50, IGF-1 (10 nM)-induced proliferation of SW480 cells, exp. 13262-014” value was more than 10000 nM. Turning to QFYGCLLDLSLGVPSFGWKKKCITA [F392], the “IC50, IGF-1 (10 nM)-induced proliferation of SW480 cells, exp. 13262-025” value was more than 10000 nM and the “IC50, IGF-1 (10 nM)-induced proliferation of SW480 cells, exp. 13262-027” value is 1000 nM. Consider SFYSCLESLVKRPTERSRGQWVGCR [F320], for which the “IC50, IGF-1 (10 nM)-induced proliferation of SW480 cells, exp. 13262-014” value is more than 10000 nM. Turning to DFYGCLLDLSLGVPSLGWRRRCITA [F429], the “IC50, IGF-1 (10 nM)-induced proliferation of SW480 cells, exp. 13717-019” value was 500 nM and the “IC50, IGF-1 (10 nM)-induced proliferation of SW480 cells, exp. 13717-027” value was 1000 nM. As for VQDDCRGRPCGDADSFYEWFDQQAGYGSSSRRAPQT [F364], the “IC50, IGF-1 (10 nM)-induced proliferation of SW480 cells, exp. 13262-015” value (shortened to “IC50 … exp. 13262-015”) was more than 10000 nM. Consider IFYSCLASLLHGGPQRNTGPWERCRR [F141], for which the “IC50 … exp. 13262-015” value was more than 10000 nM. ESFYSCLASLVTGIPRSNSGTQVFCREE [F227]: the “IC50 … exp. 13262-015” value was more than 10000 nM.

For another experiment, the target named is T2, human insulin-like growth factor-1 receptor (HIGF-1R) (human, UniProt P08069 31-1367).
T2 construct: Detergent-solubilised receptor purified on WGA-agarose; also called HIGFIR
T2 sequence (P08069 31-1367 limits assumed): as the sequence (P08069 31-1367 limits assumed) above
In words: 125I-IGF-1 displacement, SPA-assay. From the text:
In certain cases, a scintillation proximity assay (SPA assay) was used to determine IGF-1R affinity.
For the molecule QFYGCLLDLSLGVPSFGWRRRCITA (N-terminal Pox (8-amino-3,6-dioxaoctanoic acid)) [F406], the Kd (in general, the equilibrium constant for the complex coming apart) worked out at 14000 nM. On the same count and under the same terms, then EGRVDDAFYEWFERQLGEELCQSWGVRIGWLAGLCPE [F410], with 37000 nM; and B1, with 82000 nM; and VQDDCRGRPCGDADSFYEWFDQGYGSSSRRAPQT [F404], with 62000 nM. Molecule SQDQVGASLGSAISGRGGLSNFYSCLTSLATDTTRPSRRPWERCR [F397] displayed a Kd of 28000 nM. In turn, RQFYGCLLDLSLGVPSFGWRRRCITAR [F407] showed a Kd of 69000 nM. For the molecule GVGGWRYGSFPSFSSQTRS [F431], binding was characterised by a dissociation constant (Kd) of 1.7 nM. Still for that read-out and setting: then {Biotin-AEEA}-SFYSCLESLVQGPAEKSRGQWEGCRK (cysteine pairing not given here) [F414], with 65000 nM. Consider Ac-SFYSCLESLVTGPKERSRGQWEGCRR (cysteine pairing not given here) [F306], for which the Kd amounted to 100 nM. The molecule VQDDCRGRPCGDADSFYEWFDQQAS [F263, listing 1 of 2 here] gave a Kd of 2500 nM. On the same count and under the same terms, the value for ESYGDCRDRPCGDAPNFYDWFVQQASE [F270] was 7000 nM; that for B2 was 55000 nM.

Regarding Ac-SFYSCLESLVQGPAEKSRGQWEGCRK (cysteine pairing not given here, Second row labelled F365) [F365 (row r332, SEQ ID NO 200)], binding was put at a Kd of 260 nM. On to SFYSCLESLVNGPAEKFRGRRDGCR [F380], for which the Kd was 46000 nM.

The next experiment has as its target T1, IGF-1R on SW480 cells. Put plainly: cell-based or functional assay. This is another data set of the same source.
As to VQDDCRGRPCGDADSFYEWFDQQAS [F263, listing 2 of 2 here], the “IC50 in SW480 (M) in presence of IGF-1” value was more than 1e-06 M and the “IC50 in SW480 (M), peptide alone” value was more than 1e-06 M. Take SFYSCLESLVNGPAEKSRGQWDGCR [F249]: the “IC50 in SW480 (M) in presence of IGF-1” value was more than 1e-05 M and the “IC50 in SW480 (M), peptide alone” value is more than 1e-05 M. Take RQWDCRGRPCGDAESFYEWFDQQRS [F264]: the “IC50 in SW480 (M) in presence of IGF-1” value is more than 1e-05 M and the “IC50 in SW480 (M), peptide alone” value was more than 1e-05 M.

For ELQGFCELLATVTGVTGLGCLDYQPIE [F202], the “IC50 in SW480 (M) in presence of IGF-1” value is more than 1e-05 M.

The target in a further experiment is IGF-1R on MCF-7 cells (MCF-7S8, MCF7) (human, UniProt P08069 31-1367). Put plainly: cell-based or functional assay.
IGF-1R on MCF-7 cells (MCF-7S8, MCF7), sequence (P08069 31-1367): as the sequence (P08069 31-1367 limits assumed) above
As to QFYGCLLDLSLGVPSFGWRRRCITA [F138], the “IC50 in MCF-7S8, in presence of IGF-1” value was 500 nM. Regarding EISFRCQLFVLAGMHPCPVDVGGEGFE [F170], the “IC50 in MCF-7S8, in presence of IGF-1” value was found to be 2000 nM.

The target of a further experiment is IGF-1R on L6 cells. Put plainly: cell-based or functional assay.
SFYSCLESLVKRPTERSRGQWVGCR [F320]: the “IC50, down regulation of 3 nM IGF-1 stimulation to basal level, IGF-IR, L6 cells” value was 2000 nM and > 1000 nM; the “IC50, down regulation of 3 nM IGF-1 stimulation to basal level, IRS-1, L6 cells” value (“IC50, down regulation … IRS-1, L6 cells” for short) is more than 2000 nM; the “IC50, down regulation of 3 nM IGF-1 stimulation to basal level, MAPK42, L6 cells” value (“IC50, down regulation … MAPK42, L6 cells” below) stood at 1000 nM; the “IC50, down regulation of 3 nM IGF-1 stimulation to basal level, MAPK44, L6 cells” value (“IC50, down regulation … MAPK44, L6 cells” below) was 1000 nM. As for QFYGCLLDLSLGVPSFGWRRRCITA [F138], the “IC50, down regulation … IRS-1, L6 cells” value came out at 300 nM; the “IC50, down regulation … MAPK42, L6 cells” value was determined as 300 nM; the “IC50, down regulation … MAPK44, L6 cells” value is 300 nM and 100 nM; the “IC50, down regulation of 3 nM IGF-1 stimulation to basal level, PKB/Akt, L6 cells” value was 300 nM and 100 nM. Consider DFYGCLLDLSLGVPSLGWRRRCITA [F429], for which the “IC50, down regulation of 3 nM IGF-1 stimulation to basal level, IGF-IR, L6 cells” value is 50 nM; the “IC50, down regulation … IRS-1, L6 cells” value stood at 40 nM; the “IC50, down regulation … MAPK42, L6 cells” value came out at 300 nM; the “IC50, down regulation … MAPK44, L6 cells” value was 100 nM. Also, the “IC50, down regulation of 3 nM IGF-1 stimulation to basal level, PKB/Akt, L6 cells” value came to 100 nM.

For another experiment, the target named is T2, human insulin-like growth factor-1 …. Put plainly: 125I-IGF-1 displacement, PEG-assay. As for the experimental part:
IGF-1R affinity studies were generally performed as follows. […] The day before harvest cells were moved to serum free conditions and before harvest the cells were rinsed with and ice cold PBS solution. The cells were solubilized in cold lysis buffer (4 ml lysis buffer/1×10⁸ cells); vortexed vigorously to lysis in lysis buffer (50 mM Hepes (pH 8.0); 150 mM NaCl; 1% Triton X-100; 2 mM EDTA; 10 μg/mlaprotinin; 0.5 mM PEFABLOC (Roche)); and the lysate centrifuged at 4° C., 20000 rpm, for 15 minutes. […] In some cases, human insulin receptor (HIR) affinity for select test peptides was similarly measured.
For ESFYSCLASLVAGTPWPKGGSWERCREE [F230], the Kd amounted to 20000 nM. With VEGRGLFYDLLRQLLARRQNG [F158], the equilibrium dissociation constant (Kd) turned out to be 900 nM.

TFYSCLASLLTGPREQNRGAWERCRR [F142] gave a Kd of 40 nM. The molecule DDDKGSLDESFYDWFERQLGTFYSCLASLLTGTPQPNRGPWERCR [F110] displayed a Kd of 1000 nM.

ETFYKCLASVLTGSTQTKRRPWEGCREE [F229] came in with a Kd of 37000 nM. FFYRCLSRLLGGQLGSRLGLSCIGD [F139] yielded a Kd of 8000 nM.

Turning to B3, binding was put at a Kd of 1000 nM.

As to KLHNLMFYYGLQRLVWGAGLG [F159], the Kd was found to be 5000 nM. On the same count and under the same terms, then ELSFACLLSQLSGVVLPDCLLGEDE [F201], with 43000 nM; and ESFYSCLESLVNGPAEKSRGQWDGCRE [F215], with 82000 nM. Molecule EWLEQERAWIWCEIQGSGCRAE [F216] registered a Kd of 10000 nM.

In the case of B4, binding was put at a Kd of 54000 nM. On to EDHRLCGTDEYLMQDLFVRGLCRLIWE [F164], for which the Kd was determined as 4000 nM.

Consider SFYSCLESLVNGPAEKSRGQWDGCRK [F250], for which binding was characterised by a dissociation constant (Kd) of 42000 nM.

The molecule EGRVDDAFYEWFERQLGE [F213] gave a Kd of 800 nM. On the same count and under the same terms, then GVRAMSFYDALVSVLGLGPSG [F157], with 2000 nM.
